Drawing on PMC2793008, this text covers adhesion of mature megakaryocytes to hOSTs (day 18) after pre-incubation with 30 µg/mL anti-integrin alpha2 monoclonal antibody P1E6, against unrelated IgG for one substance.

This assay has as its target integrin alpha2beta1 (human (endogenous in cord blood derived megakaryocytes)) (UniProt P17301).
Chain of UniProt P17301 (P17301 30-1181, chain 1 of 2): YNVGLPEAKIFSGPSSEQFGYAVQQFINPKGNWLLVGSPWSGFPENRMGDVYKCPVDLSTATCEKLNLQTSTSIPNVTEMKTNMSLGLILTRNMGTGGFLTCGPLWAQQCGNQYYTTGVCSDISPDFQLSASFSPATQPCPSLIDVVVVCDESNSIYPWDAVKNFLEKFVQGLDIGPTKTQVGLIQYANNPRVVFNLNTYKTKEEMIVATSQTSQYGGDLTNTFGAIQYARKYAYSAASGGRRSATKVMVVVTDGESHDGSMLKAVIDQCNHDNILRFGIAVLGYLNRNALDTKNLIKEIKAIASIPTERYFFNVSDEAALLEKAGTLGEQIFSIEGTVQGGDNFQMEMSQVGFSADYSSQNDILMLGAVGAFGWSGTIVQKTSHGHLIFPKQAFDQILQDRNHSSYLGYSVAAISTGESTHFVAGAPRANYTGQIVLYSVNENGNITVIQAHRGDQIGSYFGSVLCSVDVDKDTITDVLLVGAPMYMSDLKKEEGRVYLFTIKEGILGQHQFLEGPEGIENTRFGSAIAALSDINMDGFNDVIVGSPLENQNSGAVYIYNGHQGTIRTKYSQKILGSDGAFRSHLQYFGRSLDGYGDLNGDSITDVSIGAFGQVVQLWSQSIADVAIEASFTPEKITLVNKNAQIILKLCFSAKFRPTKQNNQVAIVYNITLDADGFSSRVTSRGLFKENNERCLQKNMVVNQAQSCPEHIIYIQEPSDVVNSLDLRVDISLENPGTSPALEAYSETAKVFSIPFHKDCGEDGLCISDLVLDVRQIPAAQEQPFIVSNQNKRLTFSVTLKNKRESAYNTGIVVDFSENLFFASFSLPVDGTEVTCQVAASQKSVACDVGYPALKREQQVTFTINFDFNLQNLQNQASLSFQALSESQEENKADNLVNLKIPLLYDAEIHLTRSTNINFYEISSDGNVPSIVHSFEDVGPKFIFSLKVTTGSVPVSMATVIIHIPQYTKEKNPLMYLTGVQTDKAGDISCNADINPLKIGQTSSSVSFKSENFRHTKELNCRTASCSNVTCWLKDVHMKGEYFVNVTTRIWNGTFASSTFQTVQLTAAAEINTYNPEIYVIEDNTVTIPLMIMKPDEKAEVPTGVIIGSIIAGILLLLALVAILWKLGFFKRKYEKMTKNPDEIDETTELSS
Chain of UniProt P17301 (P05556 21-798, chain 2 of 2, further chain): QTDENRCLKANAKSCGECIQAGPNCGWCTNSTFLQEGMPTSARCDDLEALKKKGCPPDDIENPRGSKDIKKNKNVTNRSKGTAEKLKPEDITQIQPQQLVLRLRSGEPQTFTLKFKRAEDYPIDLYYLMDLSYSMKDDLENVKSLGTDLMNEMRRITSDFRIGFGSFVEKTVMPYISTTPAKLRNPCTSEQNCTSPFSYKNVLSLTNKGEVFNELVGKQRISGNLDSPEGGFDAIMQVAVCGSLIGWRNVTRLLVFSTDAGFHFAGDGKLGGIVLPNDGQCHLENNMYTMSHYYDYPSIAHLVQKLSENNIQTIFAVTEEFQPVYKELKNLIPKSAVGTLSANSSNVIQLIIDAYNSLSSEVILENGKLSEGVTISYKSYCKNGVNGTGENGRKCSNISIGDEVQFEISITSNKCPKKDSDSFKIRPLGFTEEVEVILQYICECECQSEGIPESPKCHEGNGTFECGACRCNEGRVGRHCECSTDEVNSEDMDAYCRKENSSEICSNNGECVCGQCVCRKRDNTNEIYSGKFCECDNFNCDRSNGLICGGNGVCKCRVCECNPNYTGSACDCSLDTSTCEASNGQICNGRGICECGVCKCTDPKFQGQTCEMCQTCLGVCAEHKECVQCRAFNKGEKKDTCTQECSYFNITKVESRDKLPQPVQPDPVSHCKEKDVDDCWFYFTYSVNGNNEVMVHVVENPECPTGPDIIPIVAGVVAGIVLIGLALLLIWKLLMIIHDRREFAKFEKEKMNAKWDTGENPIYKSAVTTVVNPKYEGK

Turning to “type I collagen (from UniProt P02452 162-1218; P08123 80-1119) (complex)”, the adhesion of mature megakaryocytes to hOSTs (day 18) after pre-incubation with 30 µg/mL anti-integrin alpha2 monoclonal antibody P1E6, against unrelated IgG was 30%.
